Experimental findings from doi:10.1101/2025.05.15.25327633 are described below.

As usually defined, the stoichiometry N is a count of units in the complex or per binding partner.

The assay addresses Platelet-factor 4 (Human CXCL4) (human). Description: cross-linking + AUC.

In the case of “Platelet-factor 4 (Human CXCL4) (natural protein)”, the percent of PF4 present as tetramers turned out to be 81.2% and the stoichiometry N came to 4.
